B1: gankyrin-His6x (wild-type gankyrin) (natural protein)
chain: MEGCVSNLMVCNLAYSGKLEELKESILADKSLATRTDQDSRTALHWACSAGHTEIVEFLLQLGVPVNDKDDAGWSPLHIAASAGRDEIVKALLGKGAQVNAVNQNGCTPLHYAASKNRHEIAVMLLEGGANPDAKDHYEATAMHRAAAKGNLKMIHILLYYKASTNIQDTEGNTPLHLACDEERVEEAKLLVSQGASIYIENKEEKTPLQVAKGGLGLILKR
B2: gankyrin-His6x R41A (natural protein)
chain: MEGCVSNLMVCNLAYSGKLEELKESILADKSLATRTDQDSATALHWACSAGHTEIVEFLLQLGVPVNDKDDAGWSPLHIAASAGRDEIVKALLGKGAQVNAVNQNGCTPLHYAASKNRHEIAVMLLEGGANPDAKDHYEATAMHRAAAKGNLKMIHILLYYKASTNIQDTEGNTPLHLACDEERVEEAKLLVSQGASIYIENKEEKTPLQVAKGGLGLILKR
B3: gankyrin-His6x D39A/D71A (natural protein)
chain: MEGCVSNLMVCNLAYSGKLEELKESILADKSLATRTDQASRTALHWACSAGHTEIVEFLLQLGVPVNDKDAAGWSPLHIAASAGRDEIVKALLGKGAQVNAVNQNGCTPLHYAASKNRHEIAVMLLEGGANPDAKDHYEATAMHRAAAKGNLKMIHILLYYKASTNIQDTEGNTPLHLACDEERVEEAKLLVSQGASIYIENKEEKTPLQVAKGGLGLILKR
B4: gankyrin-His6x R41A/K116A (natural protein)
chain: MEGCVSNLMVCNLAYSGKLEELKESILADKSLATRTDQDSATALHWACSAGHTEIVEFLLQLGVPVNDKDDAGWSPLHIAASAGRDEIVKALLGKGAQVNAVNQNGCTPLHYAASANRHEIAVMLLEGGANPDAKDHYEATAMHRAAAKGNLKMIHILLYYKASTNIQDTEGNTPLHLACDEERVEEAKLLVSQGASIYIENKEEKTPLQVAKGGLGLILKR
B5: gankyrin K116A (natural protein)
chain: MEGCVSNLMVCNLAYSGKLEELKESILADKSLATRTDQDSRTALHWACSAGHTEIVEFLLQLGVPVNDKDDAGWSPLHIAASAGRDEIVKALLGKGAQVNAVNQNGCTPLHYAASANRHEIAVMLLEGGANPDAKDHYEATAMHRAAAKGNLKMIHILLYYKASTNIQDTEGNTPLHLACDEERVEEAKLLVSQGASIYIENKEEKTPLQVAKGGLGLILKR
B6: gankyrin E182A (natural protein)
chain: MEGCVSNLMVCNLAYSGKLEELKESILADKSLATRTDQDSRTALHWACSAGHTEIVEFLLQLGVPVNDKDDAGWSPLHIAASAGRDEIVKALLGKGAQVNAVNQNGCTPLHYAASKNRHEIAVMLLEGGANPDAKDHYEATAMHRAAAKGNLKMIHILLYYKASTNIQDTEGNTPLHLACDAERVEEAKLLVSQGASIYIENKEEKTPLQVAKGGLGLILKR
B7: Grafted FtsH-S6 ATPase, His6x-tagged (wild-type) (other)
chain: MLTEDQIKTTFADVAGCDEAKEEVAELVEYLREPSRFQKLGGKIPKGVLMVGPPGTGKTLLAKAIAGEAKVPFFTISGSDFVEMFVGVGASRVRDMFEQAKKAAPCIIFIDEIDAVGRQRGAGLGGGHDEREQTLNQMLVEMDGFEGNEGIIVIAATNRPDVLDPALLRPGRFDRQVVVGLPDRRQKRLIFSTITSKMNLSEEVDLEDYVARPDKISGADINSICQESGMLAVRENRYIVLAKDFEKAYKTVIKKDEQEHEFYK

Experiments:
Experiment in all cases: ITC
[1] = molecular target: FtsH-S6 ATPase E356A/E357A (ITC protein) (Escherichia coli | , E356A | E357A)
[2] = molecular target: FtsH-S6 ATPase R338A/R339A/R342A (ITC protein) (Escherichia coli | , UniProt P43686 337-418, R338A | R339A | R342A)
[3] = molecular target: FtsH-S6 ATPase K397E (ITC protein) (Escherichia coli | , UniProt P43686 337-418, K397E)
[4] = molecular target: FtsH-S6 ATPase R342A (ITC protein) (Escherichia coli | , UniProt P43686 337-418, R342A)
[5] = molecular target: FtsH-S6 ATPase R338A/R342A (ITC protein) (Escherichia coli | , UniProt P43686 337-418, R338A | R342A)
[6] = molecular target: B7
[7] = molecular target: B6
[8] = molecular target: B1
[9] = molecular target: B5
[10] = molecular target: B4
[11] = molecular target: B3
[12] = molecular target: B2

B1
Kd [1]: 71.8 nM
dH [1]: -27.3 kcal/mol
Kd [2]: 7470 nM
dH [2]: -2.2 kcal/mol
Kd [3]: 95.2 nM
dH [3]: -25.6 kcal/mol
Kd [4]: 217 nM
dH [4]: -22 kcal/mol
Kd [5]: 2550 nM
dH [5]: -6.1 kcal/mol
dH [6]: -28.7 kcal/mol

B2
dH [6]: -17.1 kcal/mol

B3
dH [6]: -25 kcal/mol

B4
dH [6]: -4.9 kcal/mol

B5
dH [6]: -24 kcal/mol

B6
dH [6]: -28.2 kcal/mol

B7
Kd [7]: 141 nM
Kd [8]: 67.3 nM
Kd [9]: 71.3 nM
Kd [10]: 3630 nM
Kd [11]: 93 nM
Kd [12]: 313 nM
